The source of these data is patent US7273618B2, “Method for administering agents to the central nervous system” (Chiron Corporation, priority 1998, dated 2007).

What all share (assay type): in vivo, Sprague-Dawley rats
Conditions in all cases: rat, 7.4 nmol

Data set [1] can be described thus: Sublingual administration of 125I-IGF-I, tissue distribution by gamma counting. The procedure: Male Sprague-Dawley rats, 200-310 grams, were anesthetized with intraperitoneal pentobarbital (40 mg/kg). Drug delivery to the brain and spinal cord was assessed after sublingual administration of 7.4 nmol of ^125I-IGF-I in phosphate buffered saline, pH 7.4. Rats were placed in on their bellies with posterior elevated and mouth lowered. ^125I-IGF-I (7.4 nmol) on a small strip of filter paper was placed under the tongue. Such methods for sublingual administration are known in the art. Purushotham et al. Am J. Physiol. 269,G867-G873 (1995). Rats subsequently underwent perfusion-fixation within minutes following the completion of ^125I-IGF-I administration. Perfusion-fixation was performed with 50-100 ml physiologic saline followed by 500 ml of fixative containing 1.25% glutaraldehyde and 1% paraformaldehyde in 0.1 M Sorenson's phosphate buffer, pH 7.4, prior to dissection and ^125I measurement by gamma counting. Areas dissected included selected brain regions as well as the cervical, thoracic and sacral regions of the spinal cord.

The nature of data set [2]: Transdermal administration (skin of the face) of 125I-IGF-I, tissue distribution by gamma counting. How it is done:
Male Sprague-Dawley rats, 200-310 grams, are anesthetized with intraperitoneal pentobarbital (40 mg/kg). Drug delivery to the brain and spinal cord was assessed after transdermal administration of 7.4 nmol of ^125I-IGF-I in phosphate buffered saline, pH 7.4. Rats are placed in on their bellies with posterior elevated and mouth lowered. ^125I-IGF-I (7.4 nmol) placed on the skin of the rat's face. Rats subsequently underwent perfusion-fixation within minutes following the completion of ^125I-IGF-I administration. Perfusion-fixation was performed with 50-100 ml physiologic saline followed by 500 ml of fixative containing 1.25% glutaraldehyde and 1% paraformaldehyde in 0.1 M Sorenson's phosphate buffer, pH 7.4, prior to dissection and ^125I measurement by gamma counting. Areas dissected included selected brain regions as well as the cervical, thoracic and sacral regions of the spinal cord.

Data set [3] is described as follows: Conjunctival administration (lower eyelid) of 125I-IGF-I, tissue distribution by gamma counting.

“125I-IGF-I: insulin-like growth factor I, a single chain peptide having 70 amino acids and a molecular weight of about 7,600 daltons, radioiodinated”: the “concentration in meninges or dura surrounding olfactory bulb, dorsal and ventral regions of the brain, trigeminal nerve and upper cervical spinal cord” value in data set [1] is recorded as “High concentrations”. In addition, the “concentration in the trigeminal nerve itself” value in data set [1] is “high concentrations”. Further, the “presence in the olfactory bulb, spinal cord and brain stem” value in data set [1] is “found”. Further, the “concentration of neurologic agent in spinal cord regions (comparison)” value in data set [1] (cervical, thoracic, lumbar or sacral regions) was “higher in the cervical region of the spinal cord than in the thoracic region and higher in the thoracic region than in the lumbar or sacral regions”. Also, the “appearance of neurologic agent in the brain and spinal cord (radioactivity)” value in data set [1] (perfusion-fixation within minutes after administration), in data set [2] and in data set [3] was “Rapid appearance” throughout.
